# Reference: publication PMC12377726 (Proceedings of the National Academy of Sciences of the …, 2025)
# Target: eOD-GT8 (engineered outer domain germline-targeting version 8), monomer (HIV-1 gp120 engineered outer domain, …)
row,Binder,binding result
1,"G001_gp1_V07_VRC01c_102 (antibody, V domains shown) VH: QVQLVQSGAEVKKPGASVKVSCKASGYTFTGYYMHWVRQAPGQGLEWMGWINPISGGTNYAQEFQDWVTMTRDTSISTAYMELSRLRSDDTAVYYCARHDSSENAFDIWGQGTMVTVSS VL: DIQMTQSPSTLSASVGDRVTITCRASQSTSRWLAWYQQKPGKAPKLLIYKASSLESGVPSRFSGSGSGTEFTLTISSLQPDDFATYYCQQYTSFGQGTKLEIK",binds
2,"G001_gp1_V06_VRC01c_83 (antibody, V domains shown) VH: not shown VL: DIQMTQSPSSLSASVGDRVTITCQASQDINNYLNWYQQKPGKAPKLLIYDASNLETGVPSRFSGSGSGTDFTFTISSLQPEDIATYYCQQYEAFGQGTKVEIK",binds
3,"G001_gp1_V07_VRC01c_107 (antibody, V domains shown) VH: QVQLVQSGAEVKKPGASVKVSCKASGYTFTGYYMHWVRQAPGQGLEWMGWINPSSGGTNYAQKFQGRVTMTRDTSISTAYMELDWLRSDDTAVYYCARVRGATTFDYWGQGTLVTVSS VL: DIQMTQSPSSLSASVGDRVTITCQASQDISNYLHWYQQKPGKAPKLLIYDASKLETGVPSRFSGSGSGTDFTFTISSLQPEDIATYYCQQYNTFGQGTKLQIK",binds
4,"G001_gp1_V07_VRC01c_101 (antibody, V domains shown) VH: QVQLVQSGAEVKKPGASVKVSCKASRDTFTGYYMHWVRQAPGQGLEWMGWINPNSGGTNYAQKFQDGVTLTRDTSISTAYMELSRLRSDDTAVYYCARTEYYSQRGWAFDIWGQGTMVTVSS VL: DIQMTQSPSSLSASVGDRVTITCQASQDISNHLNWYQQKPGKAPKLLIYDASNLETGVPLRFSGSGSGTDFTFTISSLQPEDIATYYCQQYDNFGPGTKVDIK",binds
5,"G001_gp1_V06_VRC01c_87 (antibody, V domains shown) VH: not shown VL: EIVMTQSPATLSVSPGERATLSCRASQSVSSNLAWYQQKPGQAPRLLIYGASTRATGIPARFSGSGSGTEFTLTISSLQSEDFAVYYCQQYETFGQGTKVEIK",binds
6,"G001_gp1_V07_VRC01c_105 (antibody, V domains shown) VH: not shown VL: EIVMTQSPATLSVSPGERATLSCRASQSVSSNLAWYQQKPGQAPRLLIYGASTRATGIPARFSGSGSGTEFTLTISSLQSEDFAVYYCQQYNIFGQGTKLEIK",binds
7,"G001_gp1_V06_VRC01c_86 (antibody, V domains shown) VH: not shown VL: QSALTQPPSASGSPGQSVTISCTGTSSDVGGYNYVSWYQQHPGKAPKLMIYEVSKRPSGVPDRFSGSKSGNTASLTVSGLQPEDEADYYCSSYEVFGTGTRVTVL",binds
8,"G001_gp1_V06_VRC01c_88 (antibody, V domains shown) VH: QVQLVQSGAEVKKPGASVKVSCKASGYTFTGYYMHWVRQAPGQGLEWMGWINPNSGGTNYAQKFQGRVTMTRDTSISTAYMELRGLRSDDTAVYYCASLYYYVPGGWGQGTLVTVSS VL: EIVLTQSPGTLSLSPGERATLSCRASQSVSNSYLAWYQQKPGQAPRLLIYGASSRATGIPDRFSGSGSGTDFTLTISRLEPEDFAVYYCQQYVTFGPGTKVDIK",binds
9,"G001_gp1_V07_VRC01c_109 (antibody, V domains shown) VH: QVQLVQSGAEVKKPGASVKVSCKTSGYTFTDYYIHWVRQAPGQGLEWMGWINPNSGGTNYAQKFQGGVTMTRDTSISTAYMDLNRLTSDDTAVYYCTRLPPNRAAPGWWFDPWGQGTLVTVSS VL: EIVLTQSPGTLSLSPGERATLSCRASQSVSSSYLAWYQQKPGQAPRLLIYGASNRATGIPDRFSGSGSGTDFTLTISRLEPEDFAVYYCQQYGAFGQGTKVEIK",binds
10,"G001_gp1_V07_VRC01c_110 (antibody, V domains shown) VH: QVQLVQSGAEVKKPGASVRVSCKASGYTFTDYYMHWVRQAPGQGLEWMGWINPNSGGTNYAQKFQGRVTMTRDTSISTAYMELSGLRSDDTAVYYCARITGYYDSSGYYCLDHWGQGTLVTVAS VL: EIVLTQSPGTLSLSPGERATLSCRASQSGRSSYLAWYQQKPGQAPRLLIYGASSRATGIPDRFSGSGSGTDFTLTISRLEPEDFAVYYCHQYAAFGQGTKVEIK",binds
